In assay [1] the target is T1, full length rat GHR (L43R) on BAF3 cells (clone 2E2-2B12-F4) (rat) (UniProt P16310).
T1 sequence (looked up): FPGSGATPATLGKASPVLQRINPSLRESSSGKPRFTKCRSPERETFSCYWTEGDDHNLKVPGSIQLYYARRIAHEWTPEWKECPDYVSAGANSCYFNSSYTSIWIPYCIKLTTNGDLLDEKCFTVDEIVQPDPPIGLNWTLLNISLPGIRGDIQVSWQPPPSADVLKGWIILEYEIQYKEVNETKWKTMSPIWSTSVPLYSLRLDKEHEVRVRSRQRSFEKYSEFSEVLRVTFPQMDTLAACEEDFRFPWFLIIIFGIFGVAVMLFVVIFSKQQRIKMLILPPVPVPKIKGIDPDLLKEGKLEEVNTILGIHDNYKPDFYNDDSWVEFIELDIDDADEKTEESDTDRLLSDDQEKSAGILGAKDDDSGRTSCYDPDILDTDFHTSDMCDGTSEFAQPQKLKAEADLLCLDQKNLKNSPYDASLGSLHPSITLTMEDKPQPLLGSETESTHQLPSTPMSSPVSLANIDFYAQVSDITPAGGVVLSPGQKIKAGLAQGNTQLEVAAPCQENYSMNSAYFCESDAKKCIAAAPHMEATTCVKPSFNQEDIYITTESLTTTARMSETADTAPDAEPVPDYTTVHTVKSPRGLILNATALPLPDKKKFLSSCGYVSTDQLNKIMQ
As to the kind of experiment: cell-based or functional assay.

The target of assay [2] is human growth hormone receptor on IM-9 cells (human) (UniProt P10912). The assay is described as follows: cell-based or functional assay.
Chain of UniProt P10912 (P10912 19-638): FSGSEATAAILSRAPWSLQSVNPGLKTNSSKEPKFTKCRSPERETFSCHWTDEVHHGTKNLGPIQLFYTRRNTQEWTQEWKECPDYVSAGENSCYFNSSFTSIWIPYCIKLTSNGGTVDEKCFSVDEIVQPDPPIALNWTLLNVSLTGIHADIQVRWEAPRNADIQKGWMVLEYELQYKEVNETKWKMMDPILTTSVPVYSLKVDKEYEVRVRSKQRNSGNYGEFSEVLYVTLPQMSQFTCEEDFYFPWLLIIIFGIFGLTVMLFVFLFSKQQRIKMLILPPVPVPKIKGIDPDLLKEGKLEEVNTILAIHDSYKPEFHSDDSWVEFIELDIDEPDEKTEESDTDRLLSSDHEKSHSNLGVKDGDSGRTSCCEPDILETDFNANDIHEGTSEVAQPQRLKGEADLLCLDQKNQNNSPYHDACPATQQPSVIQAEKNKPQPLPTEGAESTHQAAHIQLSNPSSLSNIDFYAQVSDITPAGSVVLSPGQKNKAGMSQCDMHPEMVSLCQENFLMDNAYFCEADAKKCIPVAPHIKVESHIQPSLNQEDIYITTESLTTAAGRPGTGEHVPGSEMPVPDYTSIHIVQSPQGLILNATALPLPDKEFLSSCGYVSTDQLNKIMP

Take “Y143pAF-30KPEG hGH (from UniProt P01241 27-217) (ligand)”: the Proliferation EC50 in assay [1] is 6.6 nM. This substance also returned a pSTAT5 EC50 (nM) in assay [2] of 12.3 nM.

“R134pAF-20KPEG hGH (from UniProt P01241 27-217) (ligand)”: the pSTAT5 EC50 (nM) in assay [2] turned out to be 5.3 nM.

With “Y35pAF-40KPEG hGH (from UniProt P01241 27-217) (ligand)”, in assay [1], the Proliferation EC50 was 24 nM. The substance further returned a pSTAT5 EC50 (nM) in assay [2] of 53.3 nM.

Consider “K145pAF-30KPEG hGH (from UniProt P01241 27-217) (ligand)”, for which, in assay [1], the Proliferation EC50 is 5.3 nM. The substance further registered a pSTAT5 EC50 (nM) in assay [2] of 20.6 nM.

Take “G131pAF-30KPEG hGH (from UniProt P01241 27-217) (ligand)”: the Proliferation EC50 in assay [1] was 4.6 nM. In assay [2], this substance returned a pSTAT5 EC50 (nM) of 23.8 nM.

For the origin of these results see patent US20080300163A1.
